# Results reported in IntAct's records for PubMed 19088199.
# B1: Indoleamine 2,3-dioxygenase 1 (Mus musculus), P28776 (parent)
# chain: MALSKISPTEGSRRILEDHHIDEDVGFALPHPLVELPDAYSPWVLVARNLPVLIENGQLREEVEKLPTLSTDGLRGHRLQRLAHLALGYITMAYVWNRGDDDVRKVLPRNIAVPYCELSEKLGLPPILSYADCVLANWKKKDPNGPMTYENMDILFSFPGGDCDKGFFLVSLLVEIAASPAIKAIPTVSSAVERQDLKALEKALHDIATSLEKAKEIFKRMRDFVDPDTFFHVLRIYLSGWKCSSKLPEGLLYEGVWDTPKMFSGGSAGQSSIFQSLDVLLGIKHEAGKESPAEFLQEMREYMPPAHRNFLFFLESAPPVREFVISRHNEDLTKAYNECVNGLVSVRKFHLAIVDTYIMKPSKKKPTDGDKSEEPSNVESRGTGGTNPMTFLRSVKDTTEKALLSWP
# Variants of: B1
# Details: with socs3_mouse Socs3, O35718
# Chain of socs3_mouse Socs3, O35718 (O35718 whole entry): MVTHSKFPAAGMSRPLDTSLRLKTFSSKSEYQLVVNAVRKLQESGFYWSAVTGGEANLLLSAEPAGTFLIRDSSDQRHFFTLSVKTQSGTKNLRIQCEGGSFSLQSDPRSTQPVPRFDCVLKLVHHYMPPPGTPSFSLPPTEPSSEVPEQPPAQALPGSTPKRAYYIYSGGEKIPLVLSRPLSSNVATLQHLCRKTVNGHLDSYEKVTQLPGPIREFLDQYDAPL
row,Variant,effect of a mutation on the interaction
1,Y115F;Y253F,disrupting interaction
